Test results as given in patent publication US20230399394A1 (SUNSHINE GUOJIAN PHARMACEUTICAL SHANGHAI, published 2023).
Residue numbers refer to the chain shown, from its start. Blank lines part the entries; values can stand above or below the binder they belong to.

Key:
Human IL-33-his = biological target: T1, Human IL-33-his (human, UniProt O95760 112-270, biotinylated with EZ-Link NHS-Biotin where used as IL-33-his-biotin); assay: cell-based or functional assay
T1 sequence: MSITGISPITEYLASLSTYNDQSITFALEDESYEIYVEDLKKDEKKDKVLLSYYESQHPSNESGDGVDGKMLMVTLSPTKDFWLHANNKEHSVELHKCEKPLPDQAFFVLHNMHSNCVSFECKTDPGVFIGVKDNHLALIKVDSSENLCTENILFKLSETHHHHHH

[1] = biological target: T2, IL-33 mutant protein V67A (human, UniProt O95760 112-270); assay: ELISA as Example 9; row V67A against WT-3
T2 construct: Prokaryotic expression
T2 chain: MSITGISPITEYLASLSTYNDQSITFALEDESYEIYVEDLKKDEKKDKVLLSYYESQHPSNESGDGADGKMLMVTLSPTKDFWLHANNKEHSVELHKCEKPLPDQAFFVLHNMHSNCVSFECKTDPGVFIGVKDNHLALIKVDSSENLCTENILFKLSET
Method: (§1) SA protein was diluted to 2 μg/mL to coat ELISA plate at 100 μL/well overnight at 4° C. The plate was washed with PBST (PBS containing 0.05% Tween20) for 3 times, and blocked with 2% BSA prepared in PBS at 200 μL/well, at room temperature for 2 h. After the plate was washed twice with PBST, IL-33-his-biotin protein was diluted to 1 μg/mL with 1% BSA prepared in PBST, and was added to ELISA plate at 100 μL/well. The plate was incubated at room temperature for 1 h, and each monoclonal antibody was diluted with 1% BSA prepared in PBST in a 3-fold gradient. The highest concentration of antibody was 10 μg/mL, and the antibody was diluted for 12 gradients. Each diluted monoclonal antibody was added to ELISA wells with 100 μL/well, and the plate was incubated at room temperature for 1 h. Each sample was added to duplicate wells in parallel. The plate was washed with PBST for 3 times, and HRP-anti human IgG Fc secondary antibody prepared with PBST was diluted at an appropriate ratio, and was added to ELISA wells at 100 μL/well. […] Each reaction solution was shaken uniformly and OD450 nm was read on a microplate reader. The data was analyzed and EC₅₀ was calculated.
(§2) Subsequently, according to the experimental method of Example 9, the affinity of the above mutant proteins to 874F7-Hu1 was determined, and IL-33 proteins (WT-1, WT-2, WT-3, and WT-4) without any mutation were set as controls.

[2] = biological target: T3, IL-33 mutant protein N61A (human, UniProt O95760 112-270); assay: ELISA as Example 9; row N61A against WT-3
T3 chain: T2 chain with N61A, A67V
Method: as §1, §2

[3] = biological target: T4, IL-33 mutant protein L51A (human, UniProt O95760 112-270); assay: ELISA as Example 9; row L51A
T4 construct: Prokaryotic expression
T4 chain: T2 chain with L51A, A67V
Method: as §1, §2

[4] = biological target: T5, IL-33 protein without any mutation (WT) (human, UniProt O95760 112-270); assay: ELISA as Example 9; row WT-1
T5 construct: Control of the alanine scan (four runs WT-1 to WT-4); also called WT-1; WT-2
T5 sequence: T2 chain with A67V
Method: as §1, §2

[5] = biological target: T6, IL-33 mutant protein K45A (human, UniProt O95760 112-270); assay: ELISA as Example 9; row K45A against WT-1
T6 construct: Prokaryotic expression
T6 chain: T2 chain with K45A, A67V
Method: as §1, §2

[6] = biological target: T3, IL-33 mutant protein N61A; assay: ELISA as Example 9; row N61A
Method: as §1, §2

[7] = biological target: T7, IL-33 mutant protein D65A (human, UniProt O95760 112-270); assay: ELISA as Example 9; row D65A against WT-3
T7 construct: Prokaryotic expression
T7 chain: T2 chain with D65A, A67V
Method: as §1, §2

[8] = biological target: T7, IL-33 mutant protein D65A; assay: ELISA as Example 9; row D65A
Method: as §1, §2

[9] = biological target: T8, IL-33 mutant protein K46A (human, UniProt O95760 112-270); assay: ELISA as Example 9; row K46A against WT-1
T8 construct: Prokaryotic expression
T8 chain: T2 chain with K46A, A67V
Method: as §1, §2

- IC50 of inhibition of IL-33-induced IL-6 expression in HUVEC cells (Human IL-33-his): 0.65 nM
- IC50 of inhibition of IL-33-induced IL-8 expression in HUVEC cells (Human IL-33-his): 0.35 nM
B1: 874F7 (antibody, V domains shown)
VH: QVQLKESGPGLVAPSHSLSITCNVSGFSLSKYGVHWIRQIPGRGLDWLGVLRAGGSTGYNSALMSRLSISKDSSKSQVFLKMNDLRTDDTAVYFCVRDHYYYSSYGGFVYWGQGTLVTVSA
VL: DIQMTQSPASQSASLGESVTITCLASQTIGAWLAWYRQQPGKSPQLLIYAATRLADGVPSRFSGSGSGTEFSFKINNLQAEDFVSYYCQQLDSSPYTFGGGTRLEM
notes: Murine hybridoma antibody purified on Protein G; also called murine antibody 874F7

- Affinity decline ratio [1]: 0.6 fold
- Affinity decline ratio [2]: 0.8 fold
- EC50 [3]: 0.91 nM
- EC50 [4]: 0.23 nM
- Affinity decline ratio [5]: > 25 fold
- EC50 [6]: 0.15 nM
- Affinity decline ratio [7]: 192 fold
- EC50 [8]: 35.3 nM
- IC50 of inhibition of IFNγ secretion by NK cells induced by IL-33 (Human IL-33-his): 0.742 nM
- IC50 of inhibition of IL-5 secretion of KU812 cells induced by IL-33 (Human IL-33-his): 7.83 nM
- IC50 of inhibition of IL-13 secretion of KU812 cells induced by IL-33 (Human IL-33-his): 5.22 nM
- IC50 of the inhibitory effect on IL-6 expression in HUVEC cells induced by IL-33 (Human IL-33-his): 0.051 nM
- IC50 of the inhibitory effect on the IFN-γ secretion of PBMC induced by IL-33 (Human IL-33-his): 0.85 nM
- Affinity decline ratio [9]: 1 fold
B2: 874F7-Hu1 (antibody, human IgG4 S228P, kappa)
heavy: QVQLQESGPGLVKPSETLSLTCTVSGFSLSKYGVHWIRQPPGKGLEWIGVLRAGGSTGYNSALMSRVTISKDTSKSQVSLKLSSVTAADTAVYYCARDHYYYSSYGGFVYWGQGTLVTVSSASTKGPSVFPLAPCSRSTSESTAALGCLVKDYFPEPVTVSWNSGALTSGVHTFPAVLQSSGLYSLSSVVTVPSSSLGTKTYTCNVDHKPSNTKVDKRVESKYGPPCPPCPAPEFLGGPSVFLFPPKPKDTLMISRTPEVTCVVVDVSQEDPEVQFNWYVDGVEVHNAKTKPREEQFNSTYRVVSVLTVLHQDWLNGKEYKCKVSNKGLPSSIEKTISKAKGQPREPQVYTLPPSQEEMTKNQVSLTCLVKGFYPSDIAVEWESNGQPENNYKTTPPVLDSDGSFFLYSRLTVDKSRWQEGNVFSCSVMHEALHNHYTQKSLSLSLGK
light: DIQMTQSPSSVSASVGDRVTITCLASQTIGAWLAWYQQKPGKSPKLLIYAATRLADGVPSRFSGSGSGTDFTLTISSLQPEDFATYYCQQLDSSPYTFGQGTKVEIKRTVAAPSVFIFPPSDEQLKSGTASVVCLLNNFYPREAKVQWKVDNALQSGNSQESVTEQDSKDSTYSLSSTLTLSKADYEKHKVYACEVTHQGLSSPVTKSFNRGEC
notes: also called 874F7-Hul; humanized antibody 874F7-Hu1
